Drawing on PMC5705213, “Immunoproteasome functions explained by divergence in cleavage specificity and regulation” (eLife, 2017), this text covers Km, kcat and kcat/Km for 2 proteins.

Holding throughout (assay type): biochemical, human
Substrate in series [1]: CC(=O)N[C@@H](C)C(=O)N[C@@H](CC(N)=O)C(=O)N[C@@H](Cc1c[nH]c2ccccc12)C(=O)Nc1ccc2c(C)cc(=O)oc2c1
The series is described as follows: Purified proteasome activity assay with fluorogenic substrates, SDS-activated i20S. To be noted: other: i20S, Michaelis-Menten; pH 8.0. On the procedure:
(§1) Non-prime-side substrate specificity profiling was performed with a complete, diverse library of 160,000 fluorogenic substrates containing the general structure acetyl-P4-P3-P2-P1-(7-amino-4-carbamoylmethylcourmarin, ACC) ([Harris et al., 2000]). For each sub-library, 10 nM human i20S or c20S underwent SDS pre-activation for 1 hr at room temperature in assay buffer (20 mM Tris, pH 8.0, 0.5 mM EDTA) containing 0.03% SDS. […] Activity assays were carried out over 1 hr following two-fold sample dilution in the same 0.03% SDS-containing buffer that also contained a 250 μM final concentration of PS-SCL substrate pool. Activity was recorded in black 96-well round bottom plates (Costar, COrning, NY) using a BioTek Synergy H4 Hybrid Multi-Mode Microplate Reader set to λex = 380 nm and λem = 460 nm (gain = 63). Initial velocity in relative fluorescence units per second (RFU/s) was calculated using a linear fit of the progress curves with Gen5 software v.2.03.
(§2) Activity assays with individual fluorogenic substrates were carried out as described above for the PS-SCL assays using final concentrations of 5 nM SDS-activated i20S or c20S and 10 μM substrate except where noted below. The commercial substrates Suc-LLVY-AMC, Ac-WLA-AMC (Boston Biochem, S-330), and Ac-ANW-AMC (Boston Biochem, S-320) were used as supplied. To convert cleaved substrate RFU to free AMC or ACC dye concentration, calibration curves were prepared through total enzymatic hydrolysis of ACC- or AMC-containing peptides that had been quantified through amino acid analysis (Alphalyse, Inc.). Substrate selectivity of PA28α- and SDS-activated 20S proteasomes was compared following 1 hr pre-incubation at room temperature either in the presence of 0.03% SDS or with 12 molar equivalents of PA28α activator in the absence of SDS. For substrate selectivity assays with mixed, purified proteasomes, i20S and c20S underwent individual SDS pre-activation prior to assaying with 5 nM final concentration of pooled 20S. Proteasome ratio assays were performed with 10 μM EWFW-ACC, 30 μM iso-VQA-ACC, and 30 μM Suc-LLVY-AMC. All activity measurements were recorded on the BioTek plate reader described above using λex = 380 nm and λem = 460 nm (gain = 63) for ACC substrates and Suc-LLVY-AMC; 345 nm and λem = 445 nm (gain = 63) for Ac-WLA-AMC and Ac-ANW-AMC; and λex = 328 nm and λem = 393 nm (gain = 75) for the GEWHWPS IQ substrate. Michaelis-Menten calculations were performed using a non-linear fit in Prism v.6.0.

Substrate in series [2]: NC(=O)Cc1cc(=O)oc2cc(NC(=O)[C@H](Cc3c[nH]c4ccccc34)NC(=O)[C@H](Cc3c[nH]cn3)NC(=O)[C@H](Cc3c[nH]c4ccccc34)NC(=O)[C@@H](N)CCC(=O)O)ccc12
The description is as above. To be noted: other: i20S, Michaelis-Menten; pH 8.0. The procedure: as §1, §2

Substrate in series [3]: Cc1cc(C(=O)N[C@H](C(=O)N[C@@H](CCC(N)=O)C(=O)N[C@@H](C)C(=O)Nc2ccc3c(CC(N)=O)cc(=O)oc3c2)C(C)C)no1
Described as above. To be noted: other: i20S, Michaelis-Menten; pH 8.0. The procedure: as §1, §2

Substrate in series [4]: NC(=O)Cc1cc(=O)oc2cc(NC(=O)[C@H](Cc3c[nH]c4ccccc34)NC(=O)[C@H](Cc3ccccc3)NC(=O)[C@H](Cc3c[nH]c4ccccc34)NC(=O)[C@@H](N)CCC(=O)O)ccc12
Described as above. To be noted: other: i20S, Michaelis-Menten; pH 8.0. The procedure:
as §1, §2

Substrate in series [5]: Cc1cc(=O)oc2cc(NC(=O)[C@H](Cc3ccc(O)cc3)NC(=O)[C@@H](NC(=O)[C@H](CC(C)C)NC(=O)[C@H](CC(C)C)NC(=O)CCC(=O)O)C(C)C)ccc12
The series is described as above. To be noted: other: Michaelis-Menten plot, commercial substrate; pH 8.0. The procedure: as §1, §2

Substrate in series [6]: CC(=O)N[C@@H](C)C(=O)N[C@@H](CC(N)=O)C(=O)N[C@@H](Cc1c[nH]c2ccccc12)C(=O)Nc1ccc2c(C)cc(=O)oc2c1
The series is described as follows: Purified proteasome activity assay with fluorogenic substrates, SDS-activated c20S. To be noted: other: c20S, Michaelis-Menten; pH 8.0. On the procedure:
as §1, §2

Substrate in series [7]: NC(=O)Cc1cc(=O)oc2cc(NC(=O)[C@H](Cc3c[nH]c4ccccc34)NC(=O)[C@H](Cc3c[nH]cn3)NC(=O)[C@H](Cc3c[nH]c4ccccc34)NC(=O)[C@@H](N)CCC(=O)O)ccc12
Described as above. To be noted: other: c20S, Michaelis-Menten; pH 8.0. On the procedure: as §1, §2

Substrate in series [8]: Cc1cc(C(=O)N[C@H](C(=O)N[C@@H](CCC(N)=O)C(=O)N[C@@H](C)C(=O)Nc2ccc3c(CC(N)=O)cc(=O)oc3c2)C(C)C)no1
Described as above. To be noted: other: c20S, Michaelis-Menten; pH 8.0. On the procedure:
as §1, §2

Substrate in series [9]: NC(=O)Cc1cc(=O)oc2cc(NC(=O)[C@H](Cc3c[nH]c4ccccc34)NC(=O)[C@H](Cc3ccccc3)NC(=O)[C@H](Cc3c[nH]c4ccccc34)NC(=O)[C@@H](N)CCC(=O)O)ccc12
The series is described as above. To be noted: other: c20S, Michaelis-Menten; pH 8.0. The procedure: as §1, §2

Substrate in series [10]: Cc1cc(=O)oc2cc(NC(=O)[C@H](Cc3ccc(O)cc3)NC(=O)[C@@H](NC(=O)[C@H](CC(C)C)NC(=O)[C@H](CC(C)C)NC(=O)CCC(=O)O)C(C)C)ccc12
The series is described as above. To be noted: other: Michaelis-Menten plot, commercial substrate; pH 8.0. On the procedure: as §1, §2

B1: human immunoproteasome core particle (i20S) (Homo sapiens) (protein)
chain 1: TTTLAFKFQHGVIAAVDSRASAGSYISALRVNKVIEINPYLLGTMSGCAADCQYWERLLAKECRLYYLRNGERISVSAASKLLSNMMCQYRGMGLSMGSMICGWDKKGPGLYYVDEHGTRLSGNMFSTGSGNTYAYGVMDSGYRPNLSPEEAYDLGRRAIAYATHRDSYSGGVVNMYHMKEDGWVKVESTDVSDLLHQYREANQ
chain 2: RFSPYVFNGGTILAIAGEDFAIVASDTRLSEGFSIHTRDSPKCYKLTDKTVIGCSGFHGDCLTLTKIIEARLKMYKHSNNKAMTTGAIAAMLSTILYSRRFFPYYVYNIIGGLDEEGKGAVYSFDPVGSYQRDSFKAGGSASAMLQPLLDNQVGFKNMQNVEHVPLSLDRAMRLVKDVFISAAERDVYTGDALRICIVTKEGIREETVSLRKD
notes: purchased Boston Biochem E-370
Regarding B1, the Km is 20 µM in [1]; 52 µM in series [2]; 43 µM in series [3]; 7.0 µM in [4]; 98.6 µM in series [5]. For the same protein, the kcat was determined as 1.2 s⁻¹ in series [1], 6.8 s⁻¹ in series [2], 0.65 s⁻¹ in series [3] and 4.8 s⁻¹ in series [4]. The kcat/Km in [1] came out at 58000 M⁻¹ s⁻¹; in series [2] it was 130000 M⁻¹ s⁻¹; in series [3], 15000 M⁻¹ s⁻¹; in series [4] it was 690000 M⁻¹ s⁻¹.

B2: constitutive proteasome core particle (c20S) (Homo sapiens) (protein)
chain 1: TTTLAFKFRHGVIVAADSRATAGAYIASQTVKKVIEINPYLLGTMAGGAADCSFWERLLARQCRIYELRNKERISVAAASKLLANMVYQYKGMGLSMGTMICGWDKRGPGLYYVDSEGNRISGATFSVGSGSVYAYGVMDRGYSYDLEVEQAYDLARRAIYQATYRDAYSGGAVNLYHVREDGWIRVSSDNVADLHEKYSGSTP
chain 2: RFSPYVFNGGTILAIAGEDFAIVASDTRLSEGFSIHTRDSPKCYKLTDKTVIGCSGFHGDCLTLTKIIEARLKMYKHSNNKAMTTGAIAAMLSTILYSRRFFPYYVYNIIGGLDEEGKGAVYSFDPVGSYQRDSFKAGGSASAMLQPLLDNQVGFKNMQNVEHVPLSLDRAMRLVKDVFISAAERDVYTGDALRICIVTKEGIREETVSLRKD
notes: purchased Boston Biochem E-360
Consider B2, for which the Km in series [6] stood at 9.8 µM; in series [7], 73 µM; in series [8] it was 51 µM; in series [9] it was 1.8 µM; in series [10], 65.7 µM. Moreover, the kcat in [6] came out at 0.1 s⁻¹; in series [7] it was 1.1 s⁻¹; in series [8], 2.3 s⁻¹; in series [9] it was 0.31 s⁻¹. Further, the kcat/Km came out at 10000 M⁻¹ s⁻¹ in [6], 15000 M⁻¹ s⁻¹ in series [7], 45000 M⁻¹ s⁻¹ in series [8] and 170000 M⁻¹ s⁻¹ in [9].
